B1: YTH24.5-B1: rat IgG2b anti-CD45 antibody YTH24.5 conjugated to cleavable PBD drug-linker B1 (drawing 43) (conjugate)
heavy: QVNLLQSGAALVKPGASVKLSCKASSYTFTDYYIHWVKQSHGKTLEWIGYINPKSGFTNYNEKFRRKATLTVDKSTNTAYMDISRLTSEDSATYYCTRRTGVIPMDAWGQGASVTVSSAQTTAPSVYPLAPGCGDTTSSTVTLGCLVKGYFPEPVTVTWNSGALSSDVHTFPAVLQSGLYTLTSSVTSSTWPSQTVTCNVAHPASSTKVDKKVERRNGGIGHKCPTCPTCHKCPVPELLGGPSVFIFPPKPKDILLISQNAKVTCVVVDVSEEEPDVQFSWFVNNVEVHTAQTQPREEQYNSTFRVVSALPIQHQDWMSGKEFKCKVNNKALPSPIEKTISKPKGLVRKPQVYVMGPPTEQLTEQTVSLTCLTSGFLPNDIGVEWTSNGHIEKNYKNTEPVMDSDGSFFMYSKLNVERSRWDSRAPFVCSVVHEGLHNHHVEKSISRPPGK
light: DVVMTQTPVSLSVSLGGQVSISCRSSQSFVSSDGNTYLNWYLQKPGQSPQLLIYKVSNRLSGVPDRFSGSGSGTDFTLKISRVEHDDLGVYYCGQASKIPLTFGSGTKLEIKRADAAPTVSIFPPSMEQLTSGGATVVCFVNNFYPRDISVKWKIDGSEQRDGVLDSVTDQDSKDSTYSMSSTLSLTKVEYERHNLYTCEVVHKTSSSPVVKSFNRNEC
B2: YTH54.12-B1: rat IgG2b anti-CD45 antibody YTH54.12 conjugated to cleavable PBD drug-linker B1 (drawing 43) (conjugate)
heavy: EVQLVESGGGLVQPGGSMKLSCAASGFTFSDYYMAWVRQAPKKGLEWVASMSFAGSSTYYGDSVKGRFTISRDNAKTTLYLQMNSLRSEDTATYYCARMYTTDYYLYWYFDFWGPGTMVTVSSAQTTAPSVYPLAPGCGDTTSSTVTLGCLVKGYFPEPVTVTWNSGALSSDVHTFPAVLQSGLYTLTSSVTSSTWPSQTVTCNVAHPASSTKVDKKVERRNGGIGHKCPTCPTCHKCPVPELLGGPSVFIFPPKPKDILLISQNAKVTCVVVDVSEEEPDVQFSWFVNNVEVHTAQTQPREEQYNSTFRVVSALPIQHQDWMSGKEFKCKVNNKALPSPIEKTISKPKGLVRKPQVYVMGPPTEQLTEQTVSLTCLTSGFLPNDIGVEWTSNGHIEKNYKNTEPVMDSDGSFFMYSKLNVERSRWDSRAPFVCSVVHEGLHNHHVEKSISRPPGK
light: DVQMTQSPSYLAASPGESVSISCKASKSISNYLAWYQQKPGEANKILIYSGSTLQSGTPSRFSGSGSGTDFSLTIRNLEPEDFAVYYCQQYDEKPLTFGSGTKLEIKRADAAPTVSIFPPSMEQLTSGGATVVCFVNNFYPRDISVKWKIDGSEQRDGVLDSVTDQDSKDSTYSMSSTLSLTKVEYERHNLYTCEVVHKTSSSPVVKSFNRNEC

Key:
OCIM1 (CD45+) = assay: Cell viability assay 72 h (PrestoBlue), OCIM1; format: cell-based, human; settings: drug-linker B1
Description: (§1) OCIM1, Jurkat and Nalm6 cells were seeded at 0.5×10^5/mL were cultured for 72 hours in presence of Mab or ADC or medium (in triplicate wells) in wells of flat bottom 96-well plates. 293T cells were seeded at 9.3×10^3 cells per well in flat bottom 96-well plates and allowed to adhere the plate for up to 24 hours. 293T cells were subsequently cultured with Mab or ADC or medium (in triplicate wells) for 72 hours. PrestoBlue® Cell viability Reagent (Thermo Fisher Scientific) was added to each and incubated for up to 1.5 hours. Fluorescence intensity from each well was detected using a FLUOstar OPTIMA microplate reader (BMG Labtech). Data points are mean±s.d. for representative experiments.

human CD45+ cells [1] = assay: Engraftment of a second transplant of GFP+ autologous CD34+ cells in humanised NSG mice after conditioning; format: in vivo; settings: 1 mg/kg (combination 0.5 mg/kg each); 9 weeks after GFP+ cell transplant
Description: Adult female NSG mice were sublethally irradiated with 2.5 Gy on the day before transplantation (day −1). Cryopreserved purified CD34+ cells from mobilized peripheral blood from a normal donor were thawed and 0.5×10^6 cells in PBS were injected intravenously into the tail vein of mice (day 0). Human engraftment (human CD45+ cells) in the blood of mice was assessed at week 8. Mice were assigned to treatment cohorts so that the median human CD45+ engraftment in the blood for each cohort was as similar as possible. Mice were injected with 1 mg/kg Mab or ADC or a combination of YTH MAbs (0.5 mg/kg each) or YTH ADCs (0.5 mg/kg each) intravenously via the tail vein. Mice were subsequently transplanted with lentivirally transduced green fluorescent protein (GFP) autologous CD34+ cells (Week 10). A separate cohort of sublethally irradiated (non-humanized) NSG were injected with the same batch of GFP transduced cells served as a positive control for GFP+ human cell engraftment. Nine weeks after GFP+ cell transplant, mice were culled and blood, spleen and bone marrow taken for analysis.

Jurkat (CD45+) = assay: Cell viability assay 72 h (PrestoBlue), Jurkat; format: cell-based, human; settings: drug-linker B1
Description: as §1

fLuc+ OCIM1 cells [2] = assay: AML model in NSG mice, treatment the day after cell injection; format: in vivo; settings: for tumor (bioluminescence) signal: 1 mg/kg or 5 mg/kg i.v. the day after OCIM1 injection; for mice developing tumor / tumor signal: 1 mg/kg or 5 mg/kg i.v., cohorts of 5 mice
Description: (§2) NSG mice were transplanted with 7.5×10^6 luciferase expressing fLuc+ OCIM1 cells i.v. On the following day, unconjugated rat IgG2b antibodies or ADCs were injected i.v. via a tail vein at a dose of 1 mg/kg or 5 mg/kg. Mice were regularly monitored for signs of morbidity for the duration of the experiment. For imaging, mice were injected intraperitoneally with 200 μl of 15 mg/mL D-luciferin (Regis Technologies) in PBS. Mice were subsequently anesthetized with 4% isoflurane and maintained at 2% isoflurane. Ten minutes after injection of D-luciferin, mice were placed with anterior side up inside a IVIS Lumina III (PerkinElmer). A sub-saturating image was captured using the auto-exposure setting in the Living Image software (v4.5). Quantification and preparation of images was also carried out using the same software.

human CD45+ cells [3] = assay: Allogeneic stem cell transplant model in humanized NSG mice (YTH24.5-B1 conditioning); format: in vivo; settings: 1 mg/kg
Description: Adult NSG mice (Charles River Laboratories) were sublethally irradiated with 2.5 Gy in a ^137Cs irradiator. On the following day, mice were injected with 0.5×10^6 freshly thawed cryopreserved human CD34+ cells from a health donor were injected via the tail vein in 150 μL PBS using a 29 gauge MicroFine Plus insulin syringe (BD). Engraftment of human cells in the blood was assessed periodically from 6 weeks after transplantation. At 10 weeks post-transplant, humanized NSG mice were assigned into cohorts with similar median human CD45+ cell engraftment in the blood, as determined by flow cytometry. Mice were injected with PBS or 1 mg/kg YTH24.5-B1. Sixteen 16 days after treatment, mice were transplanted with 0.5×10^6 GFP+CD34+ cells from another healthy donor. Irradiated NSG […] were also transplanted with the GFP+CD34+ from the allogeneic healthy donor as a control for engraftment of the GFP+CD34+ cells. 8 weeks after transplantation of GFP+ cells, mice were culled and blood, spleen and bone marrow taken for analysis by flow cytometry.

Nalm6 (CD45-) = assay: Cell viability assay 5 days (PrestoBlue), Nalm6; format: cell-based, human; settings: rat IgG2b ADC, n=3
Description: OCIM1, Jurkat and Nalm6 cells were seeded at a final concentration of 1.275×10^4/mL and for 5 days in presence of rat IgG2b Mab or ADC or medium (in triplicate) in wells of flat bottom 96-well plates. 293T cells were seeded at 9.3×10^3 cells per 100 uL per well in flat bottom 96-well plates and allowed to adhere the plate for up to 24 hours. 293T cells were subsequently cultured with rat IgG2b Mabs or ADC or medium (in triplicate wells) as described above. PrestoBlue® Cell viability Reagent (Thermo Fisher Scientific) was added to each and incubated for up to 1.5 hours. Fluorescence intensity from each well was detected using a FLUOstar OPTIMA microplate reader (BMG Labtech). Data was plotted using Prism 8.0 and sigmoid dose-response non-linear regression was used to determine EC50 values. Data points are mean±s.d. for representative experiments.

fLuc+ OCIM1 cells [4] = assay: Established AML model in NSG mice, treatment 10 days post-injection; format: in vivo; settings: cohorts of 5 mice, all tumor-bearing
Description: as §2, with “7.5×10^6” for “7.5×10^6 luciferase expressing”, “At 10 days post-injection of AML cells,” for “On the following day,”, “antibody” for “rat IgG2b antibodies”

human CD34+ cells = assay: Ex vivo treatment of CD34+ cells with Mab or ADC prior to engraftment in NSG mice; settings: CD34+ cells treated at 1 nM and 0.1 nM for 4 hours before transplantation; week 8
Description: Adult female NSG mice were sublethally irradiated with 2.5 Gy on the day before transplantation. Cryopreserved purified CD34+ cells from mobilized peripheral blood from a normal donor were thawed and cultured in complete medium (RPMI 1640 plus 10% fetal calf serum) in presence of Mab, ADC or medium alone for 4 hours. Cells were washed in phosphate buffered saline (PBS) and 0.5×10^6 cells in PBS were injected intravenously into the tail vein of mice. Engraftment of transplanted human cells (hCD45+) in the bone marrow of mice was determined by flow cytometry at 8 weeks after transplantation.

Molecule | EC50 values, viability assay, OCIM1 (CD45+) (OCIM1 (CD45+)) | GFP+CD34+ out of total human CD34+ cells in the bone marrow (human CD45+ cells [1]) | EC50 values, viability assay, Jurkat (CD45+) (Jurkat (CD45+)) | tumor (bioluminescence) signal (fLuc+ OCIM1 cells [2]) | mice developing tumor / tumor signal (fLuc+ OCIM1 cells [2]) | mean % hCD45 engraftment in the bone marrow (human CD45+ cells [3]; 8 weeks after allogeneic GFP+ cells, PBS 37.5%) | percentage GFP+hCD45+ cells of all human CD45+ cells in bone marrow (mean) (human CD45+ cells [3]; PBS 2.1%, irradiation control 41.3%) | GFP+hCD34+ cells within the human CD34+ compartment in the bone marrow (mean) (human CD45+ cells [3]; PBS 3.7%) | EC50 (Nalm6 (CD45-)) | mice alive at 60 days (fLuc+ OCIM1 cells [4]) | engraftment of human CD45+ cells in the bone marrow of NSG mice (human CD34+ cells)
B1 | low pM range | ~80% | low pM range | Low/absent tumor signal | 1 out of 5 | 9.08% | 29.0% | 56.6% | 9.34 pM | 4/5 | prevented engraftment
B2 | low pM range | ~80% | low pM range | increasing tumor signal from day 18 onwards | 1 out of 5 | – | – | – | 9.64 pM | – | prevented engraftment

Source: patent US20220096654A1, “PYRROLOBENZODIAZEPINE-ANTIBODY CONJUGATES AND USES THEREOF” (ADC THERAPEUTICS SA, priority 2020, published 2022)
